Substrate in data set [1]: NO
The data set is described as follows: colorimetric NH2OH consumption. The data set is classed as biochemical, Nitrososphaera viennensis. The settings on record: aerobic, dissolved O2 as oxidant, pH 7.5, 30°C. The text has this: colorimetric NH2OH consumption on Ns. viennensis NirK

Substrate in the data set “purified protein”: O=NO
The data set is described as follows: purified protein. The data set is classed as biochemical, Nitrososphaera viennensis. Particulars: anoxic, 0.5 mM benzyl viologen, 0.24 mM dithionite, 20 mM phosphate pH 6.5, 25°C, labelled compound.

The Km is the substrate concentration at which the rate is half of its maximum. For orientation: kcat means the number of substrate molecules converted per active site and unit of time at saturation.

B1: Ns. viennensis NirK (Nitrososphaera viennensis EN76) (protein)
chain: APTGVTRHYTLIANEMEVQVAPDNALHPGGIKYNAMVFNGTIPGPVMASNAGDTVEITLKNEGKQIHSIDFHAAIGPSQVLSGNIAAGESKTWTFNTPNSGAFMYHCGADALNGVWEHIANGMYGAFVVHPTNEAPAKEFYVAFGEIYNSADGGLFVGANGTGSFDIMKFATEQPDLILTNGMAHRYVPAIGQSVKLDLNANATVFQVKPGELTRWYILAPGPNEGVSFHFISGQIDVRDGSFKTRNMAPVRNEETWWIPVGSASVIESVFPEEGLYVGVDHNMAHVLRGGAFAVLATNNSTADDVPPEAWVPSKAWLNEHAEMGGSMMGGSAGNNATSGGNTTSG
notes: signal peptide Met1-Ala24 removed, 6xHis tag (pCold I), E. coli BL21(DE3), Cu-reconstituted
For the protein B1, in data set [1], the Km is 97 µM and the turnover number (kcat) was determined as 0.039 s⁻¹. Besides, in the data set “purified protein”, the Michaelis-Menten constant (Km) is 287 µM and the turnover number (kcat) turned out to be 3.1 s⁻¹.

The values above are taken from publication PMC6308003, “Nitric Oxide Production from Nitrite Reduction and Hydroxylamine Oxidation by Copper-containing Dissimilatory Nitrite Reductase (NirK) from the Aerobic Ammonia-oxidizing Archaeon, Nitrososphaera viennensis” (Microbes and Environments, 2018).
